Measurements taken from patent publication US8436140B2, “Natriuretic peptide-mediated imaging of atherosclerotic plaque” (priority 2008, dated 2013).
Positions of bridges follow the written chain, without caps; N, C: chain ends. Residues, ends and D or L forms follow the SMILES beside them. *: point of attachment. DOTA = O=C(O)CN1CCN(CC(=O)O)CCN(CC(=O)*)CCN(CC(=O)O)CC1

How the values were obtained:
[1] = system: extracellular matrix proteins such as collagen and proteoglycans; experiment: 3T MRI of atherosclerotic lesion with plaque-targeting contrast agent; type: in vivo, rabbit; conditions: 0.5 μmol/kg, 1 h before scan, TP 1
Method: The presence of atherosclerotic lesions in the rabbits was confirmed by 3T MRI 1 hour after administration of a non-receptor specific plaque-targeting contrast agent ([…], 0.5 μmol/kg body weight, Schering AG, Germany). […] For scanning, the rabbit was placed supine into a plastic bed. Three micropipette tubes filled with 0.5 mL Gadofluorine M (Bayer Schering Pharma AG, Berlin) served as fiducial markers, and were taped into position on the bed. At the beginning of the PET study, these tubes were drained of the Gadofluorine by syringe, and refilled with 0.5 mL of ^64Cu to serve as the PET fiducials. These helped to “co-localize” the plaque regions between the two image modalities.
In this example, a MR T1 W coronal image of a typical atherosclerotic lesion in the femoral artery of a rabbit 4 weeks after air dessication-induced injury (TP 1) is shown (FIG. 6). Gadofluorine M (0.5 μmol/kg body weight) was given 1 h before the scan. […] MRI confirmed the presence of a thickened neointima in the injured vessel characteristic of the atherosclerotic-like plaques induced in this model.

in vivo = conditions: rabbit, iv, 20 MBq, total radioactivity
Method: The blood clearance studies were performed in normal rabbits (n=4) to evaluate the pharmacokinetics of tracer in vivo. About 20 MBq of ^64Cu-DOTA-C-ANF was injected intravenously into the left ear of rabbit, and blood sample (0.2 mL) was drawn from the contralateral ear over the period of 1 h (1 min, 3 min, 5 min, 10 min, 20 min, 40 min and 60 min). The activity of the blood samples were counted in gamma counter and presented in percent injected dose per gram (ID %/g). […] (FIG. 7). This tracer therefore is a highly sensitive means by which to detect a trace amount of ^64Cu-DOTA-C-ANF in the atherosclerotic animal model

| Compound | contrast agent at injured femoral artery (MR T1W image) [1] | contrast agent uptake in control artery (MR T1W image) [1] | tissue uptake at 1 min (in vivo) | tissue uptake at 0.05 h (in vivo) | tissue uptake at 1 h (in vivo) |
| --- | --- | --- | --- | --- | --- |
| CC(C(=O)NCC(=O)NCCCC[C@H](NC(=O)CO[C@H]1O[C@H](CO)[C@@H](O)[C@H](O)[C@@H]1O)C(=O)N1CCN(S(=O)(=O)C(F)(F)C(F)(F)C(F)(F)C(F)(F)C(F)(F)C(F)(F)C(F)(F)C(F)(F)F)CC1)N1CCN(CC(=O)O)CCN(CC(=O)O)CCN(CC(=O)O)CC1 (some centres unmarked) [Gadofluorine M] | binding | weak uptake | – | – | – |
| CC[C@H](C)[C@@H]1NC(=O)[C@H](CCCNC(=N)N)NC(=O)[C@H](CC(=O)O)NC(=O)[C@H]([C@@H](C)CC)NC(=O)[C@H](CCCNC(=N)N)NC(=O)CNC(=O)CNC(=O)[C@H](Cc2ccccc2)NC(=O)[C@@H](NC(=O)[C@H](CO)NC(=O)[C@H](CO)NC(=O)[C@H](CCCNC(=N)N)NC(=O)CN2CCN(CC(=O)O)CCN(CC(=O)O)CCN(CC(=O)O)CC2)CSSC[C@@H](C(N)=O)NC(=O)[C@H](C)NC(=O)CNC1=O [^64Cu-DOTA-C-ANF, metal not drawn] ({DOTA}-RSSCFGGRIDRIGAC-NH2; disulfide 4-15) | – | – | 0.22 %ID/g | 0.1 %ID/g | 0.02 %ID/g |
